Residue numbers refer to the chain shown, from its start. Numbers in names are those of the source. Values belong to the binder of their own block, whether it stands above or below them.
Key:
[1] = target: T1, C type Lectin Like molecule 1 (CLL-1), human, on cells (human, UniProt Q5QGZ9 1-265); assay: competition by flow cytometry on 293-CLL1 cells; Alexa488-labelled ChiM31 is displaced by the unlabelled antibody (half-maximal displacement, headed EC50 on the sheet)
T1 construct: whole, on cells; also called CLEC12A; DCAL-2
T1 sequence (looked up): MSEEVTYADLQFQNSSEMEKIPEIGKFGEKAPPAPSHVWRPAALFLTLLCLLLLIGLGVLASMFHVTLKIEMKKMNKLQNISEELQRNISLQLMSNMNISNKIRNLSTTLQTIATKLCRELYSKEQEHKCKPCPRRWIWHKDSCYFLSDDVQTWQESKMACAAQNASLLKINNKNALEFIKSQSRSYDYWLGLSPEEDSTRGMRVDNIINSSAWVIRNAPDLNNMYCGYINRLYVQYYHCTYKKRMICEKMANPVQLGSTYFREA
Description: FIG. 10 is an […] of competitive binding to 293CLL1 cells. ChiM31 was labelled with Alex488. Binding of ChiM31-Alex488 antibody in the presence of ChiM31, HuM31 and mouse M31 starting at 30 μg/ml and serial 3-fold dilutions, was analyzed. Absorbance values MFI (Y-axis) are plotted at each antibody concentration tested (X-axis) in the figure. IC₅₀ values were calculated using GraphPad Prism.
Referring to FIG. 10, ChiM31 was labeled with Alexa488. 293-CLL1 cells were pre-incubated with 1 μg of labeled ChiM31, and then completed with various amount of ChiM31 and HuM31. FACS were performed and data were analyzed and EC50 were calculated.

[2] = target: T1, C type Lectin Like molecule 1 (CLL-1), …; assay: flow cytometry on EOL-1 cells, MFI of C6-CLT-D202 ADC over MFI of control C0-CLT-D202 ADC; CLL-1 expression of this line not stated
[3] = target: T1, C type Lectin Like molecule 1 (CLL-1), …; assay: cell-based or functional assay
[4] = target: T1, C type Lectin Like molecule 1 (CLL-1), …; assay: flow cytometry on HEL92.1.7-CLL1 cells, MFI of C6-CLT-D202 ADC over MFI of control C0-CLT-D202 ADC
[5] = target: T1, C type Lectin Like molecule 1 (CLL-1), …; assay: flow cytometry on KG-1a cells, MFI of C6-CLT-D202 ADC over MFI of control C0-CLT-D202 ADC; CLL-1 expression of this line not stated
[6] = target: T1, C type Lectin Like molecule 1 (CLL-1), …; assay: flow cytometry on AML2 cells, MFI of C6-CLT-D202 ADC over MFI of control C0-CLT-D202 ADC; CLL-1 expression of this line not stated
[7] = target: T1, C type Lectin Like molecule 1 (CLL-1), …; assay: flow cytometry on SHI-1 cells, MFI of C6-CLT-D202 ADC over MFI of control C0-CLT-D202 ADC; CLL-1 expression of this line not stated
[8] = target: T1, C type Lectin Like molecule 1 (CLL-1), …; assay: flow cytometry on AML5 cells (express CLL-1), MFI of C6-CLT-D202 ADC over MFI of control C0-CLT-D202 ADC
[9] = target: T1, C type Lectin Like molecule 1 (CLL-1), …; assay: flow cytometry on U937 cells (listed as CLL-1 expressing in paragraph 160), MFI of C6-CLT-D202 ADC over MFI of control C0-CLT-D202 ADC
[10] = target: T1, C type Lectin Like molecule 1 (CLL-1), …; assay: cell-based or functional assay; remark: listed apart in the source
[11] = target: T1, C type Lectin Like molecule 1 (CLL-1), …; assay: flow cytometry on HL-60 cells (express CLL-1), MFI of C6-CLT-D202 ADC over MFI of control C0-CLT-D202 ADC
[12] = target: T1, C type Lectin Like molecule 1 (CLL-1), …; assay: cell-based or functional assay; remark: listed apart in the source
[13] = target: T1, C type Lectin Like molecule 1 (CLL-1), …; assay: flow cytometry on HNT-34 cells, MFI of C6-CLT-D202 ADC over MFI of control C0-CLT-D202 ADC; CLL-1 expression of this line not stated
[14] = target: T1, C type Lectin Like molecule 1 (CLL-1), …; assay: flow cytometry on PL21 cells, MFI of C6-CLT-D202 ADC over MFI of control C0-CLT-D202 ADC; CLL-1 expression of this line not stated
CLL-1 bearing a His Tag [15] = target: T2, CLL-1 bearing a His Tag; assay: ELISA on His-tagged CLL-1, purified antibody
T2 construct: also called CLL1 His Tag antigen; His Tag antigen; not shown: The exact limits of the construct are not described
T2 chain: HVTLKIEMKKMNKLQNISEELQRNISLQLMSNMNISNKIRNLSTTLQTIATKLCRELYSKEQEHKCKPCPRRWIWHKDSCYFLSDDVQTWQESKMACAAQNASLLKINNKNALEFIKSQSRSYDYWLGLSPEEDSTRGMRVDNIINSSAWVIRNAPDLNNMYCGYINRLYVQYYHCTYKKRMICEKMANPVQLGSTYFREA
Description: FIG. 8 is an ELISA analysis of the binding of purified ChM31 (SEQ ID NO:14/SEQ ID NO:10), HuM31-VH2/VL2 (SEQ ID NO:16/SEQ ID NO:12), HuM31-VH3/VL2 (SEQ ID NO:17/SEQ ID NO:12), and HuM31-VH4/VL2 (SEQ ID NO:18/SEQ ID NO:12), antibodies to CLL-1 bearing a His Tag. Each antibody was tested at various concentrations, starting at 1 μg/ml and serial 2-fold dilutions. Absorbance values (Y-axis) are plotted at each antibody concentration tested (X-axis) in the figure.
Referring to FIG. 8, each antibody was tested at various concentrations, starting at 1 μg/mL and serial 2-fold dilutions. Absorbance values (Y-axis) are plotted at each antibody concentration tested (X-axis) in the figure.

CLL-1 bearing a His Tag [16] = target: T2, CLL-1 bearing a His Tag; assay: competitive ELISA on His-tagged CLL-1; binding of mouse M31 is detected, the named antibody is the competitor
Description: FIG. 9 is an ELISA analysis of competitive binding affinity of ChM31 (SEQ ID NO:14/SEQ ID NO:10), HuM31-VH1/VL2 (SEQ ID NO:15/SEQ ID NO:12), HuM31-VH2/VL2 (SEQ ID NO:16/SEQ ID NO:12), HuM31-VH3/VL2 (SEQ ID NO:17/SEQ ID NO:12), and HuM31-VH4/VL2 (SEQ ID NO:18/SEQ ID NO:12), antibodies to CLL-1 bearing a His Tag. Binding of mouse M31 antibody in the presence of ChM31, HuM31-VH2/VL2, HuM31-VH3/VL2 or HuM31-VH4/VL2 antibody, starting at 25 μg/ml and serial 3-fold dilutions, was analyzed. Absorbance values (Y-axis) are plotted at each antibody concentration tested (X-axis) in the figure. IC₅₀ values were calculated using GraphPad Prism.
Referring to FIG. 9, binding of mouse M31 antibody in the presence of ChM31, HuM31-VH2/VL2, HuM31-VH3/VL2 or HuM31-VH4/VL2 antibody, starting at 25 μg/mL and serial 3-fold dilutions, was analyzed. Absorbance values (Y-axis) are plotted at each antibody concentration tested (X-axis) in the figure. IC50 values were calculated using GraphPad Prism.

EC50 [1]: 1.77 µg/mL
B1: Hu M31 (antibody, V domains shown)
VH: QVQLVQSGAEVKKPGASVKVSCKASGYTFTSYVMHWVRQAPGQRLEWIGYINPYNDGTKYNEKFKGKATITSDTSASTAYMELSSLRSEDTAVYYCARPIYFDNDYFDYWGQGTLVTVSS
VL: DIVMTQSPDSLAVSLGERATINCRASESVDSYGNSFMHWYQQKPGQPPKLLIYLASNLESGVPDRFSGSGSGTDFTLTISSLQAEDVAVYYCQQNNYDPWTFGGGTKVEIK

relative MFI C6/C0 [2]: 20.5 ratio | relative MFI C6/C0 [4]: 26.1 ratio | relative MFI C6/C0 [5]: 1.3 ratio | relative MFI C6/C0 [6]: 13 ratio | relative MFI C6/C0 [7]: 1.4 ratio | relative MFI C6/C0 [8]: 15 ratio | relative MFI C6/C0 [9]: 14.7 ratio | decrease in IC50, TF1-CLL1 against TF1 cells [10]: ~1000 fold | relative MFI C6/C0 [11]: 20 ratio | relative MFI C6/C0 [13]: 5.8 ratio | relative MFI C6/C0 [14]: 14.7 ratio
B2: C6-CLT-D202 ADC (humanized, cys-substituted at position 239 anti-CLL1 antibody C6-S239C-CYSMAB conjugated to CLT-D202) (antibody, V domains shown)
VH: EVQLVQSGAEVKKPGASVKMSCKASGYTFTSYFIHWVRQAPGQGLEWIGFINPYNDGSKYAQKFQGRATLTSDKSTSTVYMELSSLRSEDTAVYYCTRDDGYYGYAMDYWGQGTLVTVSS
VL: DIQMTQSPSSLSASVGDRVTLTCRATQELSGYLSWLQQKPGKAIKRLIYAASTLDSGVPSRFSGNRAGTDYTLTISSLQPEDFATYYCLQYAIYPYTFGQGTKLEIK
modifications: S239C in the heavy chain constant region (constant region sequence not given); CLT-D202 drug-linker conjugated to the engineered Cys 239; drug to antibody ratio 1.7
notes: Only variable regions are printed; it carries S239C; also called C6-D202; CLL1-ADC
IC50, cytotoxicity on AML2 cells [3]: 0.003 µg/mL | IC50, cytotoxicity on AML5 cells [3]: 0.013 µg/mL | IC50, cytotoxicity on EOL-1 cells [3]: 0.0137 µg/mL | IC50, cytotoxicity on HEL92.1.7-CLL1 cells [3]: 0.017 µg/mL | IC50, cytotoxicity on HL-60 cells [3]: 0.011 µg/mL | IC50, cytotoxicity on HNT-34 cells [3]: 3.5 µg/mL | IC50, cytotoxicity on KG-1a cells [3]: 82.8 µg/mL | IC50, cytotoxicity on PL21 cells [3]: 0.199 µg/mL | IC50, cytotoxicity on SHI-1 cells [3]: 5.67 µg/mL | IC50, cytotoxicity on U937 cells [3]: 11.7 µg/mL | IC50, killing of proliferating AML-5 cells [10]: 0.03 µg/mL | IC50, killing of quiescent AML-5 cells [10]: 0.02 µg/mL | cell killing of HL-60 cells, relative to the control ADC [10]: > 500 fold | IC50, cytotoxicity on TF1-CLL1 cells [12]: 0.008 µg/mL

EC50 (read off the curve) (CLL-1 bearing a His Tag [15]): ~0.05 µg/mL | IC50 (read off the curve) (CLL-1 bearing a His Tag [16]): ~0.6 µg/mL | EC50 [1]: 0.71 µg/mL
B3: ChM31 (antibody, V domains shown)
VH: EVQLQQSGPELVKPGASVKMSCKASGYTFTSYVMHWVKQKPGQGLEWIGYINPYNDGTKYNEKFKGKATLTSDTSSSTAYMELNSLTSEDSAVYFCARPIYFDNDYFDYWGQGTTLKVSS
VL: TIVLTQSPASLAVSLGQRATISCRASESVDSYGNSFMHWYQQKPGQPPKLLIYLASNLESGVPARFSGSGSRTDFTLTIDPVEADDAATYYCQQNNYDPWTFGGGTKLEIK
notes: chimeric M31; also called Chi M31; ChiM31

EC50 (read off the curve) (CLL-1 bearing a His Tag [15]): ~0.04 µg/mL
B4: HuM31-VH3/VL2 (antibody, V domains shown)
VH: B1 VH with Q43R
VL: B3 VL with T1D, L4M, A9D, Q17E, S22N, R72G
notes: humanized M31 variant

EC50 (read off the curve) (CLL-1 bearing a His Tag [15]): ~0.04 µg/mL
B5: HuM31-VH4/VL2 (antibody, V domains shown)
VH: B1 VH with Q43R, K67R, A68V
VL: B3 VL with T1D, L4M, A9D, Q17E, S22N, R72G
notes: humanized M31 variant

EC50 (read off the curve) (CLL-1 bearing a His Tag [15]): ~0.06 µg/mL
B6: HuM31-VH2/VL2 (antibody, V domains shown)
VH: B1 VH with K67R, I70L, A76T, S84R, E89D, L115T
VL: B3 VL with T1D, L4M, A9D, Q17E, S22N, R72G
notes: humanized M31 variant

From US20180355044A1 (CELLERANT THERAPEUTICS, published 2018)
